Data taken from IntAct's records for PubMed 19940251.

B1: DNA replication regulator protein HobA (Helicobacter pylori), O25828 (parent)
chain: MKNFYDWIKEFVRDQGEFIAQQSGWLELERSSYAKLIAQTISHVLNGGSLLVSADSSRHWFLNYILSNLNPKDLKERPLLSVIDFNASSFYPKNDANLSLATIEMTYQNPMFWHVGKIENEGLKTILLSKIPSFLWLFEELKEDCLLLKEHDSLLDYKLLQLFKLFENALFSVLYNKVTL
partner: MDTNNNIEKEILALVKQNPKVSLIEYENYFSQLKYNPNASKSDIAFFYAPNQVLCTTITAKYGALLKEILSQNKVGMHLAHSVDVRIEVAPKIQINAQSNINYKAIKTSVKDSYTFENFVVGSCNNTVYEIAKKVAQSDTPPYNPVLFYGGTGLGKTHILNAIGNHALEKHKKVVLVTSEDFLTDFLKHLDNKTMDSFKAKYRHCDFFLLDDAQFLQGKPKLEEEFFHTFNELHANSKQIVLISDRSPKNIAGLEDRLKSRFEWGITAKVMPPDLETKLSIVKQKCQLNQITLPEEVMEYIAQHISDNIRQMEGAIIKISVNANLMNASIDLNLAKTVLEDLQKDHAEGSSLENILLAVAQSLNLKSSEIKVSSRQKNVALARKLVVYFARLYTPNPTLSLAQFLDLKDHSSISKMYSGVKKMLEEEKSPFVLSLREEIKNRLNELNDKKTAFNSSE

Variants of: B1
Details: with dnaa_helpy dnaA

Row | Variant | effect of a mutation on the interaction
1 | V115D | disrupting interaction
2 | L51F | decreasing interaction
3 | R77C | decreasing interaction
4 | M111V | decreasing interaction
5 | L141P | disrupting interaction
6 | L170P | disrupting interaction
7 | L128P | disrupting interaction
8 | F112S | disrupting interaction
9 | D55G | disrupting interaction
10 | V44A | decreasing interaction
11 | S99P | decreasing interaction
12 | Y107H | decreasing interaction
13 | I118T | disrupting interaction
14 | I83M | decreasing interaction
15 | F138L | disrupting interaction strength
16 | F138S | disrupting interaction strength
17 | L174P | disrupting interaction
18 | H43R | disrupting interaction
19 | S67P | disrupting interaction
20 | L162P | disrupting interaction
21 | I41T | disrupting interaction
22 | E119G | disrupting interaction
23 | V82A | decreasing interaction
24 | A169V | disrupting interaction
25 | F61C | disrupting interaction
26 | L146S | disrupting interaction
27 | L45P | disrupting interaction

Variants of: B1
Details: with dnaa_helpy dnaA
Remark: another data set of the same source

Row | Variant | effect of a mutation on the interaction
28 | L51S | disrupting interaction strength
29 | L51F | disrupting interaction strength
30 | F138S | decreasing interaction
31 | H43R | decreasing interaction
32 | S67P | decreasing interaction
33 | L69P | disrupting interaction
34 | L127P | disrupting interaction
35 | F166S | decreasing interaction
36 | L137P | decreasing interaction
37 | S88P | disrupting interaction

Variants of: B1
Details: with dnaa_helpy dnaA
Remark: another data set of the same source

Row | Variant | effect of a mutation on the interaction
38 | L80R | disrupting interaction
39 | Y175E | disrupting interaction
40 | E76A;R77A;P78A | disrupting interaction
